Residue numbers refer to the chain shown, from its start. Names and notes keep the numbering of the source.

T1: PUF4 RNA-binding domain (Saccharomyces cerevisiae, UniProt P25339 537-888)
T1 sequence: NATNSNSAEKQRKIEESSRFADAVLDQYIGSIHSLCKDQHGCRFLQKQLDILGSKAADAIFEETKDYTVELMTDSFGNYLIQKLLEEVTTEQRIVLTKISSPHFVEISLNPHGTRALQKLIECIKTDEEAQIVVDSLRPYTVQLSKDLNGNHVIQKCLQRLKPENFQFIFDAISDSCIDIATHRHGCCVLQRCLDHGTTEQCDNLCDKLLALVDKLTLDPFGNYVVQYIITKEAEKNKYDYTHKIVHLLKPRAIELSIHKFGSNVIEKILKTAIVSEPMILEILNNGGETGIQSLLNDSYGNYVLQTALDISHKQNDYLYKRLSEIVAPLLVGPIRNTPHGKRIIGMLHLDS

B1: Ic_S2_P3E.1_K3.1_C3.1_H3.1_A3.1_F3.1_[T7G]_[A8C]_T3.1 (ssRNA)
RNA: UUUGAUUAAUAUGAUAUCGUUCUUUCUUGUAUAGCUUCUUUCUCGAUAUCAUAUUAAUCUUU
B2: Ic_S2_P3E.1_K3.1_C3.1_H3.1_A3.1_F3.1_[T7C]_[A8G]_T3.1 (ssRNA)
RNA: B1 RNA with G34C, C35G
B3: Ic_S2_P3E.1_K3.1_C3.1_H3.1_A3.1_F3.1_[T7G]_[A8T]_T3.1 (ssRNA)
RNA: B1 RNA with C35U

For the series, the target named is T1, PUF4 RNA-binding domain. Briefly: Mg; RNA-MaP; 20 mM Na-HEPES pH 7.4, 30 mM KOAc, 0.75 mM MgCl2, 0.1% Tween-20, 5% glycerol, 0.1 mg/mL BSA, 2 mM DTT; 25 C; 0.0125-409.6 nM protein. The settings on record: tags: N-His6-TEV cleaved; C-SNAP kept, Cy3B-labelled; label: tethered on chip by stalled RNA polymerase.
Usually Kd stands for the concentration at which binding is half-saturated. For UCUCUUUUCUCGUAUAUUAUCUCUU (ssRNA) [Ie_S1_P4E.1_K4.1_C4.1_H4.1_[+1TCTC]_A4.1_F4.1_T4.1], the Kd is 19.7 nM. UCUCUUUGUCUAUAUUAUCUCUU (ssRNA) [Ie_S1_P4E.1_K4.1_C4.1_H4.1_[+2TC]_A4.1_F4.1_T4.1] registered a Kd of 82.9 nM.

UCUCUUUGUUCUAUAUUAUCUCUU (ssRNA) [Ie_S1_P4E.1_K4.1_C4.1_H4.1_[+3TCT]_A4.1_F4.1_T4.1] came in with an equilibrium dissociation constant (Kd) of 27.2 nM. Molecule UCUCUUUGUCCUAUAUUAUCUCUU (ssRNA) [Ie_S1_P4E.1_K4.1_C4.1_H4.1_[+2TCC]_A4.1_F4.1_T4.1] yielded an equilibrium dissociation constant (Kd) of 40.4 nM.

Molecule UCUCUUUGCUAUAUUAUCUCUU (ssRNA) [Ie_S1_P4E.1_K4.1_C4.1_H4.1_[+2C]_A4.1_F4.1_T4.1] registered a Kd of 107 nM.

On to UCUCUUUGUUCUCAUAUUAUCUCUU (ssRNA) [Ie_S1_P4E.1_K4.1_C4.1_H4.1_[+3TCTC]_A4.1_F4.1_T4.1], for which the affinity, expressed as Kd, was 103 nM. As for UCUCUUUGCCUCUUAUAUUAUCUCUU (ssRNA) [Ie_S1_P4E.1_K4.1_C4.1_H4.1_[+2CCTCT]_A4.1_F4.1_T4.1], the Kd stood at 2130 nM. Against the preceding molecule, the Kd is about 21-fold higher. To UCUCUUUGUUCCUAUAUUAUCUCUU (ssRNA) [Ie_S1_P4E.1_K4.1_C4.1_H4.1_[+2TTCC]_A4.1_F4.1_T4.1] belongs 101 nM; to UCUCUUUGUCUCUAUAUUAUCUCUU (ssRNA) [Ie_S1_P4E.1_K4.1_C4.1_H4.1_[+3CTCT]_A4.1_F4.1_T4.1], 121 nM; to UCUCUUUGUCUCAUAUUAUCUCUU (ssRNA) [Ie_S1_P4E.1_K4.1_C4.1_H4.1_[+3CTC]_A4.1_F4.1_T4.1], 37.3 nM. The figure for UCUCUUUCCCGUAUAUUAUCUCUU (ssRNA) [Ie_S1_P4E.1_K4.1_C4.1_H4.1_[+1CCC]_A4.1_F4.1_T4.1] is 22.1 nM; for UCUCUUUGUAUCUUAUUAUCUCUU (ssRNA) [Ie_S1_P4E.1_K4.1_C4.1_H4.1_[+4TCT]_A4.1_F4.1_T4.1] it is 4 nM; for UCUCUUUGUACUCUUAUUAUCUCUU (ssRNA) [Ie_S1_P5E.1_K5.1_C5.1_H5.1_[+4CTC]_A5.1_F5.1_T5.1] it is 6.55 nM. To UCUCUUUUCUCUGUAUAUUAUCUCUU (ssRNA) [Ie_S1_P4E.1_K4.1_C4.1_H4.1_[+1TCTCT]_A4.1_F4.1_T4.1] belongs 0.586 nM. As to UCUCUUUGCUUAUAUUAUCUCUU (ssRNA) [Ie_S1_P4E.1_K4.1_C4.1_H4.1_[+2CT]_A4.1_F4.1_T4.1], binding was characterised by a dissociation constant (Kd) of 870 nM.

Take UCUCUUUCCCUGUAUAUUAUCUCUU (ssRNA) [Ie_S1_P4E.1_K4.1_C4.1_H4.1_[+1CCCT]_A4.1_F4.1_T4.1]: the Kd turned out to be 1.2 nM.

Molecule UCUCUUUUUCCGUAUAUUAUCUCUU (ssRNA) [Ie_S1_P4E.1_K4.1_C4.1_H4.1_[+1TTCC]_A4.1_F4.1_T4.1] yielded a Kd of 36.3 nM.

With UCUCUUUCCUGUAUAUUAUCUCUU (ssRNA) [Ie_S1_P4E.1_K4.1_C4.1_H4.1_[+1CCT]_A4.1_F4.1_T4.1], the Kd is 0.583 nM. Take UCUCUUUGUACCUUAUUAUCUCUU (ssRNA) [Ie_S1_P4E.1_K4.1_C4.1_H4.1_[+4CCT]_A4.1_F4.1_T4.1]: the Kd came out at 4.83 nM. UCUCUUUGUCUCUUAUAUUAUCUCUU (ssRNA) [Ie_S1_P4E.1_K4.1_C4.1_H4.1_[+2TCTCT]_A4.1_F4.1_T4.1] returned a dissociation constant (Kd) of 134 nM. Against the preceding molecule, the Kd is about 28-fold higher. Molecule UCUCUUUGUUCAUAUUAUCUCUU (ssRNA) [Ie_S1_P4E.1_K4.1_C4.1_H4.1_[+3TC]_A4.1_F4.1_T4.1] displayed a Kd of 134 nM. UCUCUUUGUAUACUUAUCUCUU (ssRNA) [Ie_S1_P4E.1_K4.1_C4.1_H4.1_A4.1_[+6C]_F4.1_T4.1] yielded a dissociation constant (Kd) of 4.35 nM. In turn, UCUCUUUUUCGUAUAUUAUCUCUU (ssRNA) [Ie_S1_P4E.1_K4.1_C4.1_H4.1_[+1TTC]_A4.1_F4.1_T4.1] came in with a Kd of 20.9 nM. UCUCUUUGCCUUAUAUUAUCUCUU (ssRNA) [Ie_S1_P4E.1_K4.1_C4.1_H4.1_[+2CCT]_A4.1_F4.1_T4.1] registered a Kd of 1330 nM. For the molecule UCUCUUUCCUCUGUAUAUUAUCUCUU (ssRNA) [Ie_S1_P4E.1_K4.1_C4.1_H4.1_[+1CCTCT]_A4.1_F4.1_T4.1], the dissociation constant Kd came out at 0.539 nM. Take UCUCUUUCCCUUGUAUAUUAUCUCUU (ssRNA) [Ie_S1_P4E.1_K4.1_C4.1_H4.1_[+1CCCTT]_A4.1_F4.1_T4.1]: binding was characterised by a dissociation constant (Kd) of 0.454 nM.

In the case of UCUCUUUGUAUUUUAUUAUCUCUU (ssRNA) [Ie_S1_P5E.1_K5.1_C5.1_H5.1_[+4TT]_A5.1_F5.1_T5.1], binding was characterised by a dissociation constant (Kd) of 2.74 nM. This Kd is about 6-fold higher than that of the molecule before. Molecule UCUCUUUUUCCUGUAUAUUAUCUCUU (ssRNA) [Ie_S1_P4E.1_K4.1_C4.1_H4.1_[+1TTCCT]_A4.1_F4.1_T4.1] displayed a dissociation constant Kd of 1.18 nM. Compared with the last molecule, the Kd is about 2.3-fold lower. The molecule UCUCUUUGUAUAUUUAUCUCUU (ssRNA) [Ie_S1_P4E.1_K4.1_C4.1_H4.1_A4.1_F4.1_[+8T]_T4.1] came in with a Kd of 2.39 nM. The figure for UCUCUUUGCUCUAUAUUAUCUCUU (ssRNA) [Ie_S1_P4E.1_K4.1_C4.1_H4.1_[+2CTC]_A4.1_F4.1_T4.1] is 583 nM; for UCUCUUUGUUUUAUAUUAUCUCUU (ssRNA) [Ie_S1_P4E.1_K4.1_C4.1_H4.1_[+3TTT]_A4.1_F4.1_T4.1] it is 32.9 nM. As for UCUCUUUGUUUCCUAUAUUAUCUCUU (ssRNA) [Ie_S1_P4E.1_K4.1_C4.1_H4.1_[+3TTCCT]_A4.1_F4.1_T4.1], binding was characterised by a dissociation constant (Kd) of 58.7 nM.

UCUCUUUGUAUCUAUUAUCUCUU (ssRNA) [Ie_S1_P5E.1_K5.1_C5.1_H5.1_A5.1_[+5C]_F5.1_T5.1] showed an equilibrium dissociation constant (Kd) of 13.7 nM.

In turn, UCUCUUUGUUCUCUAUAUUAUCUCUU (ssRNA) [Ie_S1_P4E.1_K4.1_C4.1_H4.1_[+3TCTCT]_A4.1_F4.1_T4.1] gave a Kd of 49.6 nM. This Kd lies about 3.6-fold higher than the previous one. UCUCUUUGUAUCCUAUUAUCUCUU (ssRNA) [Ie_S1_P4E.1_K4.1_C4.1_H4.1_[+4TCC]_A4.1_F4.1_T4.1] yielded a Kd of 5.92 nM.

The molecule UCUCUUUGCCUAUAUUAUCUCUU (ssRNA) [Ie_S1_P4E.1_K4.1_C4.1_H4.1_[+2CC]_A4.1_F4.1_T4.1] had a dissociation constant Kd of 1390 nM.

As for UCUCUUUGCCUCUAUAUUAUCUCUU (ssRNA) [Ie_S1_P4E.1_K4.1_C4.1_H4.1_[+2CCTC]_A4.1_F4.1_T4.1], binding was characterised by a dissociation constant (Kd) of 1010 nM.

Take UCUCUUUGUUUCCAUAUUAUCUCUU (ssRNA) [Ie_S1_P4E.1_K4.1_C4.1_H4.1_[+3TTCC]_A4.1_F4.1_T4.1]: binding was put at a Kd of 83.7 nM. UCUCUUUGUACUUUAUUAUCUCUU (ssRNA) [Ie_S1_P5E.1_K5.1_C5.1_H5.1_[+4CT]_A5.1_F5.1_T5.1] gave a Kd of 2.73 nM.

Consider UCUCUUUCUCUCGUAUAUUAUCUCUU (ssRNA) [Ie_S1_P4E.1_K4.1_C4.1_H4.1_[+1CTCTC]_A4.1_F4.1_T4.1], for which the equilibrium dissociation constant (Kd) stood at 27.9 nM.

As for UCUCUUUGUCUUAUAUUAUCUCUU (ssRNA) [Ie_S1_P4E.1_K4.1_C4.1_H4.1_[+2TCT]_A4.1_F4.1_T4.1], the dissociation constant (Kd) came out at 45.9 nM. Turning to UCUCUUUGCUCUUAUAUUAUCUCUU (ssRNA) [Ie_S1_P4E.1_K4.1_C4.1_H4.1_[+2CTCT]_A4.1_F4.1_T4.1], the dissociation constant Kd was 984 nM. The molecule UCUCUUUCUCUGUAUAUUAUCUCUU (ssRNA) [Ie_S1_P4E.1_K4.1_C4.1_H4.1_[+1CTCT]_A4.1_F4.1_T4.1] registered a Kd of 0.881 nM. UCUCUUUGUAUUAUUAUCUCUU (ssRNA) [If_S1_P5E.1_K5.1_C5.1_H5.1_A5.1_F5.1_T5.1] showed a dissociation constant (Kd) of 4.68 nM.

The molecule UCUCUUUGUAUUCUAUUAUCUCUU (ssRNA) [Ie_S1_P5E.1_K5.1_C5.1_H5.1_A5.1_[+5TC]_F5.1_T5.1] registered a dissociation constant (Kd) of 3.27 nM. As for UCUCUUUCUUGUAUAUUAUCUCUU (ssRNA) [Ie_S1_P4E.1_K4.1_C4.1_H4.1_[+1CTT]_A4.1_F4.1_T4.1], binding was characterised by a dissociation constant (Kd) of 0.599 nM. The figure for UCUCUUUGUUUAUAUUAUCUCUU (ssRNA) [Ie_S1_P4E.1_K4.1_C4.1_H4.1_[+2TT]_A4.1_F4.1_T4.1] is 60.9 nM; for UCUCUUUGUAUUUAUUAUCUCUU (ssRNA) [Ie_S1_P4E.1_K4.1_C4.1_H4.1_[+4TT]_A4.1_F4.1_T4.1] it is 16.2 nM. In turn, UCUCUUUGUCUCUCAUAUUAUCUCUU (ssRNA) [Ie_S1_P4E.1_K4.1_C4.1_H4.1_[+3CTCTC]_A4.1_F4.1_T4.1] came in with a dissociation constant Kd of 948 nM.

As to B1, binding was put at a Kd of 109 nM. B2: binding was characterised by a dissociation constant (Kd) of 35.1 nM. To B3 belongs 25.9 nM; to UCUCUUUGUACCCUAUUAUCUCUU (ssRNA) [Ie_S1_P4E.1_K4.1_C4.1_H4.1_[+4CCC]_A4.1_F4.1_T4.1], 5.85 nM. Molecule UCUCUUUGCCCUUAUAUUAUCUCUU (ssRNA) [Ie_S1_P4E.1_K4.1_C4.1_H4.1_[+2CCCT]_A4.1_F4.1_T4.1] displayed a Kd of 1080 nM. Against the preceding molecule, the Kd is about 180-fold higher. Take UCUCUUUGCUCUCUAUAUUAUCUCUU (ssRNA) [Ie_S1_P4E.1_K4.1_C4.1_H4.1_[+2CTCTC]_A4.1_F4.1_T4.1]: binding was put at a Kd of 733 nM. The figure for UCUCUUUUCUGUAUAUUAUCUCUU (ssRNA) [Ie_S1_P4E.1_K4.1_C4.1_H4.1_[+1TCT]_A4.1_F4.1_T4.1] is 0.546 nM; for UCUCUUUGUACUUAUUAUCUCUU (ssRNA) [Ie_S1_P5E.1_K5.1_C5.1_H5.1_[+4C]_A5.1_F5.1_T5.1] it is 14.3 nM.

(Values after PMC9352680, “A comprehensive thermodynamic model for RNA binding by the Saccharomyces cerevisiae Pumilio protein PUF4”.)
